# Reference: patent US11311631B2, “Paclitaxel-albumin-binding agent compositions and methods for using and making the same” (Mayo Foundation for Medical Education and Research, priority 2016, dated 2022)
# Target: T1, CD20+ Daudi lymphoma cells (Homo sapiens, UniProt P11836)
# T1 construct: co-incubated with CD20+ Daudi lymphoma cells for 30 minutes at room temperature; endogenous in cells; host or cells: Daudi lymphoma cells
# T1 sequence (P11836 1-297): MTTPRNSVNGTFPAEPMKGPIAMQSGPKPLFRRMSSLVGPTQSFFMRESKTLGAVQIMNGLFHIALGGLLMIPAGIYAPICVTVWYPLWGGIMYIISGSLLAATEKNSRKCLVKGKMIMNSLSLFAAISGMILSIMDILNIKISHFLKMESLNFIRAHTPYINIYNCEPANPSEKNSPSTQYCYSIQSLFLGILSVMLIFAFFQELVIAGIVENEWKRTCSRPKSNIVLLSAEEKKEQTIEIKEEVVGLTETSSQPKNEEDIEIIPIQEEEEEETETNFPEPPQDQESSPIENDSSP
# Test: Daudi cell CD20 blocking (subsequent PE anti-human CD20 staining)
# Assay type: cell-based
# Conditions: co-incubated with CD20+ Daudi cells 30 minutes at room temperature
# Description: […] show blocking of CD20-positive Daudi cells with isotype control (FIG. 5A), anti-CD20 antibody (FIG. 5B), ABRAXANE® (FIG. 5C), AR160 (FIG. 5D), NTP (FIG. 5E), rituximab-bound NTP (NTRit; FIG. 5F), or rituximab alone (FIG. 5G).
# ABX, AR160, Non-toxic nanoparticle (NTP) and rituximab-bound NTP were prepared as described above or previously (see, e.g., PCT Pub. No. WO2014/055415, which is incorporated herein by reference in its entirety). The nanoparticles and unlabeled rituximab were co-incubated with CD20+ Daudi lymphoma cells for 30 minutes at room temperature. The cells were washed and subsequently stained with PE anti-human CD20. Isotype (FIG. 5A) and anti-CD20 (FIG. 5B) stained cells served as negative and positive controls, respectively.
substance,measurement,value
rituximab: anti-CD20 antibody (Rituxan),blocking of subsequent binding of PE anti-human CD20,block subsequent binding of PE anti-human CD20
